How the values were obtained:
[1] = Osteocalcin adsorption, elution and dissolution test on biomimetic apatite (HPLC); assay type: physicochemical; details: 20 μg protein
Procedure: The test with osteocalcin was conducted by incubating biomimetic apatite prepared on Ti6Al4V substrates with phosphate buffered saline (PBS) containing 0.1 mg/mL (bovine serum albumin) BSA. […] Eighty five percent of the original protein (20 μg) is adsorbed by biomimetic apatite crystals within 3 hours of test. An elution test was designed to further test the affinity of biomimetic apatite to osteocalcin in PBS containing 0.1 mg/mL BSA was measured (FIG. 6). Only ˜6% of the originally applied protein (20 μg) was eluted out from the biomimetic apatite crystals after 20 hours of incubation.

[2] = TGF-β1 adsorption, elution and dissolution test on biomimetic apatite (HPLC); assay type: physicochemical
Procedure: A parallel study was designed for testing the interaction between biomimetic apatite mineral with TGF-β1 by using a sodium acetate buffer containing 0.1 mg/mL BSA. […] Fifty five percent of growth factor (20 μg) was adsorbed by biomimetic apatite crystallites after 4 hours. Ten percent additional protein was adsorbed in the next 20 hour.

| Substance | originally applied protein eluted out from the biomimetic apatite crystals ([1]; PBS containing 0.1 mg/mL BSA, after 20 hours of incubation) | original protein adsorbed by biomimetic apatite crystals ([1]; PBS containing 0.1 mg/mL BSA, within 3 hours) | protein recovered after dissolution of the minerals in acid ([1]; minerals fully dissolved in acid) | growth factor adsorbed by biomimetic apatite crystallites ([2]; 20 μg, sodium acetate buffer containing 0.1 mg/mL BSA, after 4 hours) | elution and dissolution profiles ([2]; compared with osteocalcin) | additional protein adsorbed ([2]; sodium acetate buffer containing 0.1 mg/mL BSA, in the next 20 hour) |
| --- | --- | --- | --- | --- | --- | --- |
| osteocalcin (YLYQWLGAPVPYPDPLEPRREVCELNPDCDELADHIGFQEAYRRFYGPV; UniProt P02818 52-100, looked up) | ~6% | Eighty five | ~64% |  |  |  |
| transforming growth factor-beta-1 [TGF-β1] |  |  |  | Fifty five | very similar to those of osteocalcin | Ten |

Reference: patent US20060257492A1, “Suspension of calcium phosphate particulates for local delivery of therapeutic agents” (DePuy Products, Inc., priority 2005, published 2006)
